Residue numbers refer to the chain shown, from its start. Each block holds one binder with its values, some of them ahead of it.
Columns and labels:
human glucagon [1] = molecular target: human glucagon (human); assay: cell-based or functional assay
human glucagon [2] = molecular target: T1, human glucagon (human); assay: SPR Biacore 4000, antibody captured by anti-human Fc, GCG injected, 25 C
T1 construct: Bought peptide (Phoenix Pharmaceuticals, #028-02); 29 residue hormone; also called GCG; human GCG
T1 sequence (peptide, as listed by the source): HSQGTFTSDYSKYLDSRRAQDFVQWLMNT
Description: (§1) Experiments were performed at 25° C. and 37° C.
(§2) Kinetic association (kₐ) and dissociation (kd) rate constants were determined by processing and fitting the data to a 1:1 binding model using Scrubber 2.0c curve fitting software. Binding dissociation equilibrium constants (KD) and dissociative half-lives (t½) were calculated from the kinetic rate constants as: […]

human glucagon [3] = molecular target: T1, human glucagon; assay: SPR Biacore 4000, antibody captured by anti-human Fc, GCG injected, 37 C
Description: as §1, §2

B2: H4H10238P (antibody, V domains shown)
VH: QVQLVESGGGVVQPGRSLRLSCAASGFTFSSYGMHWVRQAPVKGLEWVAFISNDKSNKYYADSLKGRFTISRDNSKNTLYLQMNSLTAEDTAVYYCAKESILAALFDYWGQGTLVTVSS
VL: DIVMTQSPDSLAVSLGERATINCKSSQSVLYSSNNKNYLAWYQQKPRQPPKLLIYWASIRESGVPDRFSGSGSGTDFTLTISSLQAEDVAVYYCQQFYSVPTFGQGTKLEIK
IC50, inhibition of GCG activation of HEK293/CRE-luc/hGCGR cells (luciferase reporter, 40 pM GCG) (human glucagon [1]): 1.8e-11 M
Kd (human glucagon [2]): 0.16 nM
koff (human glucagon [2]): 0.00062 s⁻¹
kon (human glucagon [2]): 3.89e+06 M⁻¹ s⁻¹
t½ (human glucagon [2]): 19 min
Kd (human glucagon [3]): 0.555 nM
koff (human glucagon [3]): 0.00274 s⁻¹
kon (human glucagon [3]): 4.94e+06 M⁻¹ s⁻¹
t½ (human glucagon [3]): 4 min

B4: H4H10250P (antibody, V domains shown)
VH: B2 VH with N53F, K55G, A61T, L64V, V93I
VL: DIVMTQSPDSLAVSLGERATINCKSSQSVLYSSNNKNYLAWYQQKPRQPPNLLIYWASIRESGVPDRFSGSGSGTDFTLTISSLQAEDVAFYYCQQFYSIPTFGQGTKLEIK
IC50, inhibition of GCG activation of HEK293/CRE-luc/hGCGR cells (luciferase reporter, 40 pM GCG) (human glucagon [1]): 3.4e-11 M
Kd (human glucagon [2]): 0.283 nM
koff (human glucagon [2]): 0.000939 s⁻¹
kon (human glucagon [2]): 3.32e+06 M⁻¹ s⁻¹
t½ (human glucagon [2]): 12 min
Kd (human glucagon [3]): 1.27 nM
koff (human glucagon [3]): 0.00708 s⁻¹
kon (human glucagon [3]): 5.58e+06 M⁻¹ s⁻¹
t½ (human glucagon [3]): 2 min

B6: H4H10231P (antibody, V domains shown)
VH: B2 VH with S31T, Y32F, S56N, Y59F, L64V, K76R, N77D, A88P
VL: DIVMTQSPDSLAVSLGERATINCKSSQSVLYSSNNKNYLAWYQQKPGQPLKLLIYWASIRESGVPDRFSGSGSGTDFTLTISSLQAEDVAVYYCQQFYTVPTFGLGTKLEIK
IC50, inhibition of GCG activation of HEK293/CRE-luc/hGCGR cells (luciferase reporter, 40 pM GCG) (human glucagon [1]): 7.3e-12 M
Kd (human glucagon [2]): 0.0927 nM
koff (human glucagon [2]): 0.000685 s⁻¹
kon (human glucagon [2]): 7.39e+06 M⁻¹ s⁻¹
t½ (human glucagon [2]): 17 min
Kd (human glucagon [3]): 1.01 nM
koff (human glucagon [3]): 0.00245 s⁻¹
kon (human glucagon [3]): 2.4e+06 M⁻¹ s⁻¹
t½ (human glucagon [3]): 5 min

B7: H4H10270P (antibody, V domains shown)
VH: B2 VH with L64V, Y108S
VL: B4 VL with N51K, T75A, E87A, F91V, I100V
IC50, inhibition of GCG activation of HEK293/CRE-luc/hGCGR cells (luciferase reporter, 40 pM GCG) (human glucagon [1]): 2.2e-11 M
Kd (human glucagon [2]): 0.153 nM
koff (human glucagon [2]): 0.000732 s⁻¹
kon (human glucagon [2]): 4.8e+06 M⁻¹ s⁻¹
t½ (human glucagon [2]): 16 min
Kd (human glucagon [3]): 0.559 nM
koff (human glucagon [3]): 0.00378 s⁻¹
kon (human glucagon [3]): 6.77e+06 M⁻¹ s⁻¹
t½ (human glucagon [3]): 3 min

Next, values leading:

IC50, inhibition of GCG activation of HEK293/CRE-luc/hGCGR cells (luciferase reporter, 40 pM GCG) (human glucagon [1]): 9.1e-10 M
Kd (human glucagon [2]): 0.715 nM
koff (human glucagon [2]): 0.00178 s⁻¹
kon (human glucagon [2]): 2.5e+06 M⁻¹ s⁻¹
t½ (human glucagon [2]): 6 min
Kd (human glucagon [3]): 4.78 nM
koff (human glucagon [3]): 0.0236 s⁻¹
kon (human glucagon [3]): 4.9e+06 M⁻¹ s⁻¹
t½ (human glucagon [3]): 0.5 min
B1: H1H059P (antibody, V domains shown)
VH: QVQLVESGGGVVQPGRSLRLSCAASGFAFSNYGMHWVRQAPGKGLEWVTFISYDGSNKYYADSVKGRFTISRDNSKNTLYLQVNSLRAEDTAVYYCAKEAVLAALFDYWGQGTLVTVSS
VL: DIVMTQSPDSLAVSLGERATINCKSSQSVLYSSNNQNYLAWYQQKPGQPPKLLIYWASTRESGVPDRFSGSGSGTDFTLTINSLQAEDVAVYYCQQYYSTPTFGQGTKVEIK
notes: The antibody was captured by an anti-human Fc antibody in SPR

IC50, inhibition of GCG activation of HEK293/CRE-luc/hGCGR cells (luciferase reporter, 40 pM GCG) (human glucagon [1]): 2.5e-10 M
Kd (human glucagon [2]): 0.242 nM
koff (human glucagon [2]): 0.000746 s⁻¹
kon (human glucagon [2]): 3.08e+06 M⁻¹ s⁻¹
t½ (human glucagon [2]): 15 min
Kd (human glucagon [3]): 2.08 nM
koff (human glucagon [3]): 0.0088 s⁻¹
kon (human glucagon [3]): 4.25e+06 M⁻¹ s⁻¹
t½ (human glucagon [3]): 1 min
B3: H4H10236P (antibody, V domains shown)
VH: B2 VH with A40T, V42G, N53Y, K55G, S56N, L64V, Y80F, T87R
VL: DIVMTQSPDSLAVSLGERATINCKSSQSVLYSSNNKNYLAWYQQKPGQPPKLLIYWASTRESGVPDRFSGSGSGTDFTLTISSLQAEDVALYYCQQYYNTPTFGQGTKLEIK

IC50, inhibition of GCG activation of HEK293/CRE-luc/hGCGR cells (luciferase reporter, 40 pM GCG) (human glucagon [1]): 1.8e-11 M
Kd (human glucagon [2]): 0.0753 nM
koff (human glucagon [2]): 0.000582 s⁻¹
kon (human glucagon [2]): 7.72e+06 M⁻¹ s⁻¹
t½ (human glucagon [2]): 20 min
Kd (human glucagon [3]): 0.314 nM
koff (human glucagon [3]): 0.00248 s⁻¹
kon (human glucagon [3]): 7.9e+06 M⁻¹ s⁻¹
t½ (human glucagon [3]): 5 min
B5: H4H10256P (antibody, V domains shown)
VH: B2 VH with S30R, S31T, N53K, K55G, N57D, A61V, L64V, Y80F
VL: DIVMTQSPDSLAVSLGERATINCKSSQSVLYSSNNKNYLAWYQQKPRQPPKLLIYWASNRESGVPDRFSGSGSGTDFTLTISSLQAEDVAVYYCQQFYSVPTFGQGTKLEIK

IC50, inhibition of GCG activation of HEK293/CRE-luc/hGCGR cells (luciferase reporter, 40 pM GCG) (human glucagon [1]): 9.5e-12 M
Kd (human glucagon [2]): 0.0578 nM
koff (human glucagon [2]): 0.000541 s⁻¹
kon (human glucagon [2]): 9.36e+06 M⁻¹ s⁻¹
t½ (human glucagon [2]): 21 min
Kd (human glucagon [3]): 0.347 nM
koff (human glucagon [3]): 0.00223 s⁻¹
kon (human glucagon [3]): 6.4e+06 M⁻¹ s⁻¹
t½ (human glucagon [3]): 5 min
B8: H4H10223P (antibody, V domains shown)
VH: B2 VH with S30N, S31T, K58T, Y59F, L64V, Y80F, Q82E
VL: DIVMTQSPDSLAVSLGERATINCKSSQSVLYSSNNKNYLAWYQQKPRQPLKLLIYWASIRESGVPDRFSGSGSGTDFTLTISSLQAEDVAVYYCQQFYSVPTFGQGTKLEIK
notes: Kappa light chain variable region

IC50, inhibition of GCG activation of HEK293/CRE-luc/hGCGR cells (luciferase reporter, 40 pM GCG) (human glucagon [1]): 3.4e-11 M
Kd (human glucagon [2]): 0.208 nM
koff (human glucagon [2]): 0.00103 s⁻¹
kon (human glucagon [2]): 4.96e+06 M⁻¹ s⁻¹
t½ (human glucagon [2]): 11 min
Kd (human glucagon [3]): 0.907 nM
koff (human glucagon [3]): 0.00683 s⁻¹
kon (human glucagon [3]): 7.53e+06 M⁻¹ s⁻¹
t½ (human glucagon [3]): 2 min
B9: H4H10237P (antibody, V domains shown)
VH: B2 VH with N53Y, K55G, L64V
VL: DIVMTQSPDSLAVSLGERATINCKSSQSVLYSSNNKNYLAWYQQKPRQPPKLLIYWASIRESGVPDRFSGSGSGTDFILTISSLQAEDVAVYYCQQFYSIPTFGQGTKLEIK

IC50, inhibition of GCG activation of HEK293/CRE-luc/hGCGR cells (luciferase reporter, 40 pM GCG) (human glucagon [1]): 2.3e-11 M
Kd (human glucagon [2]): 0.0724 nM
koff (human glucagon [2]): 0.000231 s⁻¹
kon (human glucagon [2]): 3.19e+06 M⁻¹ s⁻¹
t½ (human glucagon [2]): 50 min
Kd (human glucagon [3]): 0.318 nM
koff (human glucagon [3]): 0.00147 s⁻¹
kon (human glucagon [3]): 4.61e+06 M⁻¹ s⁻¹
t½ (human glucagon [3]): 8 min
B10: H4H10232P (antibody, V domains shown)
VH: QVQLVESGGGVVQPGRSLRLSCVASGFTFRNYDMHWVRQAPGKGLEWVAVTSSDGLNKFYSDSVKGRFTISRDNSKNTLSLQITGLRAEDTAVYYCAKESILAALFDYWGQGTLVTVSS
VL: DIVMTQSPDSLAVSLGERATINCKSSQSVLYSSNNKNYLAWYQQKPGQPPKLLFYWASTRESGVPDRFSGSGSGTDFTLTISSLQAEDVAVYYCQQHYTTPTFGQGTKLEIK
